Where no end group is shown, it is not given here. [ ]: non-standard residue; d: D form.
Legend:
[1] = healthy mice, 4 hours post-intravenous administration, IVIS
Protocol: The lyophilized BTP-7-Cy5.5 powders were dissolved to a final concentration of 10 mM in DMSO by mass. The peptide was then diluted to a concentration of 100 μM in a solution of 50:50 polyethylene glycol (PEG)-300:0.9% sodium chloride (v/v) irrigation solution. A 100 μL dose of each peptide solution was administered intravenously via the tail vein into healthy 8-week old female nude mice. After 4 hours, 100 μL of 50 mg/mL tetramethylrhodamine isothiocyanate-labeled dextran (155 kDa) in 0.9% sodium chloride was injected via the tail vein. Mice were sacrificed 30 min later by cervical dislocation. The brain, heart, lungs, kidneys, spleen, and liver were excised from each mouse, frozen on dry ice and imaged using an In Vivo Imaging System (Perkin Elmer) at an excitation of 640 nm. Using Living Image software, regions of interest were drawn around each organ and the total radiant efficiency of Cy5.5 from each organ was quantified.

[2] = In vivo analysis of BBB permeability in non-tumor bearing mice; set-up: species or system mouse; conditions: i.v., 100 μL of 100 μM, 4 hrs
Protocol: To measure BBB penetration, naïve nude mice were injected intravenously via the tail vein with either Cy5.5-labeled BTP-7 or a scramble (Cy5.5-Scr-7) peptide (100 μL of 100 μM peptide solution). 4 hrs later, mice were injected with 100 μL of 50 mg/mL TRITC-dextran (155 kDa) via the tail vein. Mice were euthanized after 30 mins, and their brains excised, frozen and cryo-sectioned into 16 μm slices. Tissue sections from the frontal lobe were imaged by confocal microscopy using a 20× objective. Areas with high TRITC (red in original) signal indicate regions of high perfusion (i.e. blood vessels). Cy5.5 (peptide) intensity was measured in areas outside of visible TRITC signal to ensure that only peptide intensity in the brain parenchyma (peptide that has successfully extravasated from the vessels and accumulated in the brain tissues) was quantified.

HEK-Bcan cells [3] = experiment: Flow cytometry cell uptake, HEK-Bcan versus regular HEK cells; assay type: cell-based, human; conditions: Cy5.5-conjugated peptides, 5 μM
Protocol: (§1) Cells were washed once with PBS and then, treated with 1 mL of 2.5 mM EDTA to dissociate the cells. The EDTA was removed by centrifugation, and PBS supplemented with 10% FBS was added to create a single-cell suspension. All peptide stocks were dissolved in DMSO, and stored at −20° C. in the dark. Cells were incubated with each peptide (at the desired final concentration, between 1-10 μM) for 3 hrs at 37° C. in the dark under constant rotation. After incubation, cells were washed 3× with PBS with 10% FBS (by centrifugation at 7000 rpm for 3 mins each). Then, cells were resuspended in 3.7% formaldehyde for fixation, and finally washed once with PBS. Cells were evaluated for peptide uptake (mean fluorescence intensity) by flow cytometry (10,000-20,000 events).

GBM-6 cells = experiment: Flow cytometry cell uptake in GBM-6 cells; assay type: cell-based, human
Protocol: as §1

intracranial GBM-6 tumor = experiment: Intracranial GBM-6 tumor uptake analysis in nude mice; assay type: in vivo, mouse; conditions: i.v. tail vein, 100 μL of 500 μM
Protocol: For intracranial tumor implantation, animals were injected with 100,000 GBM-6 cells in the right frontal lobe of the mouse brain. Briefly, nude mice (6-8 weeks) were anaesthetized by i.p. injection with ketamine/xylazine/acepromazine mixed in 0.9% NaCl saline solution. Then, the mice heads were mounted onto a stereotactic frame, and sterilized by swabbing with iodine solution. An 8-10 mm sagittal incision was made with a scalpel, and the bregma of the skull was identified. A Hamilton syringe containing GBM-6 cells (in PBS; 3 μL volume) was inserted into the coronal suture of the skull at the following coordinates from the bregma: 2 mm right and 0.5 mm forward. The tip of the needle was lowered/implanted into the brain (3.5 mm distance). GBM-6 cells were injected slowly (0.1 μL per 10 seconds). After that, the needle was retracted, and the skin around the incision was sutured back together. Mice were allowed to recover after surgery (meloxicam were given as analgesia post-surgery). […] After 8 hrs, mice were sacrificed and their brains excised, cryosectioned, stained with Hoechst dye and imaged by fluorescence microscopy. […] The mean Cy5.5 fluorescence intensity of the tumor was performed on ImageJ and compared with the mean fluorescence intensity on the non-tumor area on the contralateral (left) side of the brain.

BT188 glioma stem cells = experiment: Peptide uptake in BT188 (BΔg-high) versus BT145 (BΔg-low) glioma stem cells, fluorescence imaging; assay type: cell-based, human; conditions: fluorescein-labeled peptides, 5 μM
Excerpt: FIGS. 3A-I. Peptide characterization for BΔg specificity in glioma stem cells. (a) Table summary listing the properties of 7 peptides (composed of 8 D-amino acid residues, SEQ ID NOs:3-9, in order of appearance) that were isolated from the OBOC library screen. MW=molecular weight; KD=Kyte-Doolittle scale for amino acid hydropathy (positive scores indicate […]) (Kyte and Doolittle, J. Mol. Biol. 157, 105-132 (1982)). (b) Chemical structure showing the linkage between the peptide and FITC. (c) Western blot analysis showing the level of BΔg and Bcan in human embryo kidney (HEK) cells, and Bcan-overexpressing HEK cells (HEK-Bcan). […] Each group was normalized to a no-blocking (vehicle) control. Statistics were performed using multiple t-tests, and significance was measured in comparison to each vehicle control (p<0.0001). (e) Uptake of fluorescein-labeled BTP-2, 7, 8, 9, and 10 (at 5 μM conc.) in BT188 (BΔg-high) or BT145 (BΔg-low) glioma stem cells (GSCs). Western blot analysis on the top right confirms the BΔg expression level. […] Statistics were performed using the two-way ANOVA and Tukey's Multiple Comparison test. (f) Chemical structure showing the linkage between the peptide and Cy5.5 dye. (g) Western blot analysis showing the expression of BΔg in GBM-6 cells, with negligible BΔg level in astrocytes or neural progenitor cells (NPC). (h) Graph showing the cell uptake ranking of the top 3 peptide candidates, BTP-7, 8 and 9 in GBM-6 cells as determined by flow cytometry analysis with s.d. error bars (5 μM conc.; nevents=20,000 cells; nexperiment=5). Each group is normalized to the control scramble peptide (Scr-8). Statistics were performed using the one-way ANOVA and Tukey's Multiple Comparison test (significance were measured in comparison to the Scr-8 control). (i) Bar graph showing the uptake of BTP-7, 8 and 9 in GBM-6 cells and NPC with 95% confidence interval error bars (1 μM conc.; nevents=20,000 cells). Statistics were performed using the two-way ANOVA and Sidak's Multiple Comparison test.

HEK-Bcan cells [4] = experiment: Flow cytometry blocking study with 50× molar excess of unlabeled peptide; assay type: cell-based, human; conditions: fluorescein-conjugated peptide 1 μM
Protocol: as §1
For blocking studies, cells were dissociated as described above and resuspended in cold PBS with 10% FBS. Cells were then incubated with a 50× molar excess of unlabeled peptide for 10 mins on ice, before adding the corresponding FITC-labeled peptide at a final concentration of 1 μM and incubated for 1.5 hrs on ice. Cells were then washed with cold PBS with 10% FBS, fixed and analyzed by flow cytometry.

[5] = Solubility in aqueous solutions

Compound	fluorescence intensity in liver and kidneys [1]	uptake in brain and heart compared to other organs [1]	accumulation in the brain parenchyma outside of regions of high perfusion ([2]; healthy non-tumor bearing mice, confocal microscopy)	level of extravasation across the BBB compared with Scr-7 ([2]; mean Cy5.5 intensity in parenchyma)	uptake in HEK-Bcan cells compared with regular HEK cells (HEK-Bcan cells [3])	uptake in GBM-6 GSCs compared with astrocytes (GBM-6 cells; Cy5.5-conjugated peptides)	uptake in GBM-6 cells at 4° C. compared to 37° C. (GBM-6 cells; Cy5.5-conjugated peptides, 5 μM, inhibition of endocytosis)	cell uptake ranking in GBM-6 cells (GBM-6 cells; Cy5.5-labeled, 5 μM, normalized to Scr-8)	tumor uptake compared to the control Cy5.5 dye (without peptide) (intracranial GBM-6 tumor; brain cryo-sections, mean Cy5.5 intensity in tumor)	fluorescence intensity of tumor compared to the contralateral area (intracranial GBM-6 tumor; tumor-to-non-tumor ratio)	uptake in BT188 GSCs compared with BT145 GSCs (BT188 glioma stem cells)	uptake in HEK-Bcan cells in the presence of the blocking peptide (HEK-Bcan cells [4])	solubility in aqueous solutions compared to the other peptides [5]
CC(C)[C@@H](NC(=O)[C@@H](Cc1c[nH]cn1)NC(=O)CNC(=O)[C@@H](Cc1c[nH]c2ccccc12)NC(=O)[C@@H](CCCCN)NC(=O)[C@H](N)[C@H](C)O)C(=O)N[C@H](CC(N)=O)C(=O)N[C@H](CCCCN)C(=O)NCCCCCC(=O)N[C@@H](Cc1cn(CCCNC(=O)CCCCC[N+]2=C(/C=C/C=C/C=C3/N(C)c4ccc5ccccc5c4C3(C)C)C(C)(C)c3c2ccc2ccccc32)nn1)C(N)=O [BTP-7-Cy5.5]	highest fluorescence intensity	relatively low uptake	accumulated within the brain parenchyma	higher that of Scr-7	significantly higher	significantly higher	significantly reduced	highest uptake	more than 10 times	4 times			
BTP-2: BΔg-targeting peptide of 8 D-amino acid residues from OBOC screen; sequence only in FIG. 3A ([dW][dR][dK][dA][dF][dT]G[dY]; not fully specified)											greater uptake	reduced uptake	more insoluble in aqueous solutions
